The labels stand for the following.
B1: Fc-fused protein of human TIGIT [human] / wild type human PVR, full length, on CHO-K1 cells [human] (parent complex)
chain 1: MMTGTIETTGNISAEKGGSIILQCHLSSTTAQVTQVNWEQQDQLLAICNADLGWHISPSFKDRVAPGPGLGLTLQSLTVNDTGEYFCIYHTYPDGTYTGRIFLEVLESSVAEHGARFQIP
chain 2: WPPPGTGDVVVQAPTQVPGFLGDSVTLPCYLQVPNMEVTHVSQLTWARHGESGSMAVFHQTQGPSYSESKRLEFVAARLGAELRNASLRMFGLRVEDEGNYTCLFVTFPQGSRSVDIWLRVLAKPQNTAEVQKVQLTGEPVPMARCVSTGGRPPAQITWHSDLGGMPNTSQVPGFLSGTVTVTSLWILVPSSQVDGKNVTCKVEHESFEKPQLLTVNLTVYYPPEVSISGYDNNWYLGQNEATLTCDARSNPEPTGYNWSTTMGPLPPFAVAQGAQLLIRPVDKPINTTLICNVTNALGARQAELTVQVKEGPPSEHSGISRNAIIFLVLGILVFLILLGIGIYFYWSKCSREVLWHCHLCPSSTEHASASANGHVSYSAVSRENSSSQDPQTEGTR

In one assay the parent is B1. As to the kind of experiment: flow cytometry on cells; 120 nM hTIGIT-Fc; CHOK1 cells overexpressing hPVR; parent: 1; read off a plot. On the technique in general: A flow cytometer gives signals particle by particle.
In the case of chain 2 WPPPGTGDVVVQAPTQVPGFLGDSVTLPCYLQVPNMEVTHVSQLTWARHGESGSMAVFHQTQGPSYWESKRLEFVAARLGAELRNASLRMFGLRVEDEGNYTCLFVTFPQGSRSVDIWLRVLAKPQNTAEVQKVQLTGEPVPMARCVSTGGRPPAQITWHSDLGGMPNTSQVPGFLSGTVTVTSLWILVPSSQVDGKNVTCKVEHESFEKPQLLTVNLTVYYPPEVSISGYDNNWYLGQNEATLTCDARSNPEPTGYNWSTTMGPLPPFAVAQGAQLLIRPVDKPINTTLICNVTNALGARQAELTVQVKEGPPSEHSGISRNAIIFLVLGILVFLILLGIGIYFYWSKCSREVLWHCHLCPSSTEHASASANGHVSYSAVSRENSSSQDPQTEGTR [chain 2 S67W], the ratio to parent was approximately 0.82.

With chain 2 WPPPGTGDVVVQAPTQVPGFLGDSVTLPCYLQVPNMEVTHVSQLTWARHGESGSMAVFHQTQGPSYSESKRLEFVAARLGAELRNASLRMFGLRVEDEGNYTCLFVTFPQGQRSVDIWLRVLAKPQNTAEVQKVQLTGEPVPMARCVSTGGRPPAQITWHSDLGGMPNTSQVPGFLSGTVTVTSLWILVPSSQVDGKNVTCKVEHESFEKPQLLTVNLTVYYPPEVSISGYDNNWYLGQNEATLTCDARSNPEPTGYNWSTTMGPLPPFAVAQGAQLLIRPVDKPINTTLICNVTNALGARQAELTVQVKEGPPSEHSGISRNAIIFLVLGILVFLILLGIGIYFYWSKCSREVLWHCHLCPSSTEHASASANGHVSYSAVSRENSSSQDPQTEGTR [chain 2 S112Q], the ratio to parent was approximately 1.4.

In the case of chain 2 WPPPGTGDVVVQAPTQVPGFLGDSVTLPCYLQVPNMEVTHVSQLTWARHGESGSMAVFHQTQGPSYSESKRLEFVAARLGAELRNASLRMFGLRVEDEGNYTCLFVTFPQGRRSVDIWLRVLAKPQNTAEVQKVQLTGEPVPMARCVSTGGRPPAQITWHSDLGGMPNTSQVPGFLSGTVTVTSLWILVPSSQVDGKNVTCKVEHESFEKPQLLTVNLTVYYPPEVSISGYDNNWYLGQNEATLTCDARSNPEPTGYNWSTTMGPLPPFAVAQGAQLLIRPVDKPINTTLICNVTNALGARQAELTVQVKEGPPSEHSGISRNAIIFLVLGILVFLILLGIGIYFYWSKCSREVLWHCHLCPSSTEHASASANGHVSYSAVSRENSSSQDPQTEGTR [chain 2 S112R], the ratio to parent is approximately 1.

For the variant chain 2 WPPPGTGDVVVQAPTQVPGFLGDSVTLPCYLQVPNMEVTHVSQLTWARHGESGWMAVFHQTQGPSYSESKRLEFVAARLGAELRNASLRMFGLRVEDEGNYTCLFVTFPQGSRSVDIWLRVLAKPQNTAEVQKVQLTGEPVPMARCVSTGGRPPAQITWHSDLGGMPNTSQVPGFLSGTVTVTSLWILVPSSQVDGKNVTCKVEHESFEKPQLLTVNLTVYYPPEVSISGYDNNWYLGQNEATLTCDARSNPEPTGYNWSTTMGPLPPFAVAQGAQLLIRPVDKPINTTLICNVTNALGARQAELTVQVKEGPPSEHSGISRNAIIFLVLGILVFLILLGIGIYFYWSKCSREVLWHCHLCPSSTEHASASANGHVSYSAVSRENSSSQDPQTEGTR [chain 2 S54W], the ratio to parent was approximately 1.2.

On to chain 2 WPPPGTGDVVVQAPTQVPGFLGDSVTLPCYLQVPNMEVTHVSQLEWARHGESGSMAVFHQTQGPSYSESKRLEFVAARLGAELRNASLRMFGLRVEDEGNYTCLFVTFPQGSRSVDIWLRVLAKPQNTAEVQKVQLTGEPVPMARCVSTGGRPPAQITWHSDLGGMPNTSQVPGFLSGTVTVTSLWILVPSSQVDGKNVTCKVEHESFEKPQLLTVNLTVYYPPEVSISGYDNNWYLGQNEATLTCDARSNPEPTGYNWSTTMGPLPPFAVAQGAQLLIRPVDKPINTTLICNVTNALGARQAELTVQVKEGPPSEHSGISRNAIIFLVLGILVFLILLGIGIYFYWSKCSREVLWHCHLCPSSTEHASASANGHVSYSAVSRENSSSQDPQTEGTR [chain 2 T45E], for which the ratio to parent is approximately 0.1.

For the variant chain 2 WPPPGTGDVVVQAPTQVPGFLGDSVTLPCYLQVPNMEVTHVSQLTWARHGEWGSMAVFHQTQGPSYSESKRLEFVAARLGAELRNASLRMFGLRVEDEGNYTCLFVTFPQGSRSVDIWLRVLAKPQNTAEVQKVQLTGEPVPMARCVSTGGRPPAQITWHSDLGGMPNTSQVPGFLSGTVTVTSLWILVPSSQVDGKNVTCKVEHESFEKPQLLTVNLTVYYPPEVSISGYDNNWYLGQNEATLTCDARSNPEPTGYNWSTTMGPLPPFAVAQGAQLLIRPVDKPINTTLICNVTNALGARQAELTVQVKEGPPSEHSGISRNAIIFLVLGILVFLILLGIGIYFYWSKCSREVLWHCHLCPSSTEHASASANGHVSYSAVSRENSSSQDPQTEGTR [chain 2 S52W], the ratio to parent is approximately 1.2.

As to chain 2 WPPPGTGDVVVQAPTQVPGFLGDSVTLPCYLQVPNMEVTHVSQLTWARHGERGSMAVFHQTQGPSYSESKRLEFVAARLGAELRNASLRMFGLRVEDEGNYTCLFVTFPQGSRSVDIWLRVLAKPQNTAEVQKVQLTGEPVPMARCVSTGGRPPAQITWHSDLGGMPNTSQVPGFLSGTVTVTSLWILVPSSQVDGKNVTCKVEHESFEKPQLLTVNLTVYYPPEVSISGYDNNWYLGQNEATLTCDARSNPEPTGYNWSTTMGPLPPFAVAQGAQLLIRPVDKPINTTLICNVTNALGARQAELTVQVKEGPPSEHSGISRNAIIFLVLGILVFLILLGIGIYFYWSKCSREVLWHCHLCPSSTEHASASANGHVSYSAVSRENSSSQDPQTEGTR [chain 2 S52R], the ratio to parent was approximately 1.1.

Regarding chain 2 WPPPGTGDVVVQAPTQVPGFLGDSVTLPCYLQVPNMEVTHVSQLTWARHGESGSMAVFHQTQGPSYSESKRLEFVAARLGAELRNASLRMFGLRVEDEGNYTCLFVTFPQWSRSVDIWLRVLAKPQNTAEVQKVQLTGEPVPMARCVSTGGRPPAQITWHSDLGGMPNTSQVPGFLSGTVTVTSLWILVPSSQVDGKNVTCKVEHESFEKPQLLTVNLTVYYPPEVSISGYDNNWYLGQNEATLTCDARSNPEPTGYNWSTTMGPLPPFAVAQGAQLLIRPVDKPINTTLICNVTNALGARQAELTVQVKEGPPSEHSGISRNAIIFLVLGILVFLILLGIGIYFYWSKCSREVLWHCHLCPSSTEHASASANGHVSYSAVSRENSSSQDPQTEGTR [chain 2 G111W], the ratio to parent was approximately 0.55.

For the variant chain 2 WPPPGTGDVVVQAPTQVPGFLGDSVTLPCYLQVPNMEVTHVSQLTWARHGESGSMAVFHQTQGPSYSESKRLEFVAARLGAELRNASLRMFGLRVEDEGNYTCLFVTFPQMSRSVDIWLRVLAKPQNTAEVQKVQLTGEPVPMARCVSTGGRPPAQITWHSDLGGMPNTSQVPGFLSGTVTVTSLWILVPSSQVDGKNVTCKVEHESFEKPQLLTVNLTVYYPPEVSISGYDNNWYLGQNEATLTCDARSNPEPTGYNWSTTMGPLPPFAVAQGAQLLIRPVDKPINTTLICNVTNALGARQAELTVQVKEGPPSEHSGISRNAIIFLVLGILVFLILLGIGIYFYWSKCSREVLWHCHLCPSSTEHASASANGHVSYSAVSRENSSSQDPQTEGTR [chain 2 G111M], the ratio to parent is approximately 0.93.

With chain 2 WPPPGTGDVVVQAPTQVPGFLGDSVTLPCYLQVPNMEVTHVSQLTWARHGESGSMAVFHQTQGPSYSESKRLEFVAARLGAELRNASLRMFGLRVEDEGNYTCLFVTFPQVSRSVDIWLRVLAKPQNTAEVQKVQLTGEPVPMARCVSTGGRPPAQITWHSDLGGMPNTSQVPGFLSGTVTVTSLWILVPSSQVDGKNVTCKVEHESFEKPQLLTVNLTVYYPPEVSISGYDNNWYLGQNEATLTCDARSNPEPTGYNWSTTMGPLPPFAVAQGAQLLIRPVDKPINTTLICNVTNALGARQAELTVQVKEGPPSEHSGISRNAIIFLVLGILVFLILLGIGIYFYWSKCSREVLWHCHLCPSSTEHASASANGHVSYSAVSRENSSSQDPQTEGTR [chain 2 G111V], the ratio to parent is approximately 1.6.

The variants in a further assay derive from B1. As to the kind of experiment: flow cytometry on cells; 120 nM hTIGIT-Fc; CHOK1 cells overexpressing hPVR; parent: 3.2e+03; read off a plot.
In the case of chain 2 WPPPGTGDVVVQAPTQVPGFLGDSVTLPCYLQVPNMEVTHVSQLTWARHGESGSMAVFHQTQGPSYWESKRLEFVAARLGAELRNASLRMFGLRVEDEGNYTCLFVTFPQGSRSVDIWLRVLAKPQNTAEVQKVQLTGEPVPMARCVSTGGRPPAQITWHSDLGGMPNTSQVPGFLSGTVTVTSLWILVPSSQVDGKNVTCKVEHESFEKPQLLTVNLTVYYPPEVSISGYDNNWYLGQNEATLTCDARSNPEPTGYNWSTTMGPLPPFAVAQGAQLLIRPVDKPINTTLICNVTNALGARQAELTVQVKEGPPSEHSGISRNAIIFLVLGILVFLILLGIGIYFYWSKCSREVLWHCHLCPSSTEHASASANGHVSYSAVSRENSSSQDPQTEGTR [chain 2 S67W], the response is approximately 2600 MFI.

On to chain 2 WPPPGTGDVVVQAPTQVPGFLGDSVTLPCYLQVPNMEVTHVSQLEWARHGESGSMAVFHQTQGPSYSESKRLEFVAARLGAELRNASLRMFGLRVEDEGNYTCLFVTFPQGSRSVDIWLRVLAKPQNTAEVQKVQLTGEPVPMARCVSTGGRPPAQITWHSDLGGMPNTSQVPGFLSGTVTVTSLWILVPSSQVDGKNVTCKVEHESFEKPQLLTVNLTVYYPPEVSISGYDNNWYLGQNEATLTCDARSNPEPTGYNWSTTMGPLPPFAVAQGAQLLIRPVDKPINTTLICNVTNALGARQAELTVQVKEGPPSEHSGISRNAIIFLVLGILVFLILLGIGIYFYWSKCSREVLWHCHLCPSSTEHASASANGHVSYSAVSRENSSSQDPQTEGTR [chain 2 T45E], for which the response is approximately 100 MFI.

Regarding chain 2 WPPPGTGDVVVQAPTQVPGFLGDSVTLPCYLQVPNMEVTHVSQLTWARHGESGSMAVFHQTQGPSYSESKRLEFVAARLGAELRNASLRMFGLRVEDEGNYTCLFVTFPQWSRSVDIWLRVLAKPQNTAEVQKVQLTGEPVPMARCVSTGGRPPAQITWHSDLGGMPNTSQVPGFLSGTVTVTSLWILVPSSQVDGKNVTCKVEHESFEKPQLLTVNLTVYYPPEVSISGYDNNWYLGQNEATLTCDARSNPEPTGYNWSTTMGPLPPFAVAQGAQLLIRPVDKPINTTLICNVTNALGARQAELTVQVKEGPPSEHSGISRNAIIFLVLGILVFLILLGIGIYFYWSKCSREVLWHCHLCPSSTEHASASANGHVSYSAVSRENSSSQDPQTEGTR [chain 2 G111W], the response was approximately 1700 MFI.

Variants of B1 are the subject of another assay. The assay is described as above. The source holds these as a separate data set.
As for chain 2 WPPPGTGDVVVQAPTQVPGFLGDSVTLPCYLQVPNMEVTHVSQLTWARHGESGSMAVFHQTQGPSYSESKRLEFVAARLGAELRNASLRMFGLRVEDEGNYTCLFVTFPQGQRSVDIWLRVLAKPQNTAEVQKVQLTGEPVPMARCVSTGGRPPAQITWHSDLGGMPNTSQVPGFLSGTVTVTSLWILVPSSQVDGKNVTCKVEHESFEKPQLLTVNLTVYYPPEVSISGYDNNWYLGQNEATLTCDARSNPEPTGYNWSTTMGPLPPFAVAQGAQLLIRPVDKPINTTLICNVTNALGARQAELTVQVKEGPPSEHSGISRNAIIFLVLGILVFLILLGIGIYFYWSKCSREVLWHCHLCPSSTEHASASANGHVSYSAVSRENSSSQDPQTEGTR [chain 2 S112Q], the response is approximately 4400 MFI.

For the variant chain 2 WPPPGTGDVVVQAPTQVPGFLGDSVTLPCYLQVPNMEVTHVSQLTWARHGESGSMAVFHQTQGPSYSESKRLEFVAARLGAELRNASLRMFGLRVEDEGNYTCLFVTFPQVSRSVDIWLRVLAKPQNTAEVQKVQLTGEPVPMARCVSTGGRPPAQITWHSDLGGMPNTSQVPGFLSGTVTVTSLWILVPSSQVDGKNVTCKVEHESFEKPQLLTVNLTVYYPPEVSISGYDNNWYLGQNEATLTCDARSNPEPTGYNWSTTMGPLPPFAVAQGAQLLIRPVDKPINTTLICNVTNALGARQAELTVQVKEGPPSEHSGISRNAIIFLVLGILVFLILLGIGIYFYWSKCSREVLWHCHLCPSSTEHASASANGHVSYSAVSRENSSSQDPQTEGTR [chain 2 G111V], the response was approximately 4900 MFI.

The record behind these values is article PMC7869511, “Computer-aided design of PVR mutants with enhanced binding affinity to TIGIT” (Cell Communication and Signaling : CCS, 2021).
